PMC1072803

Target: T1, CREB-HZ (CREB-H bZIP region) (Mus musculus, UniProt Q91XE9 206-318)
T1 sequence: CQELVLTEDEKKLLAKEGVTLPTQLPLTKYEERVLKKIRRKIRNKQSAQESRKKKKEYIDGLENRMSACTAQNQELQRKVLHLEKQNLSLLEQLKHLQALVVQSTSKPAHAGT
Experiment: competition

B1: box B, alcohol dehydrogenase-1 gene (dsDNA)
DNA 1: GATCTTGTACACGTAATCGTAGGATCC
DNA 2: GGATCCTACGATTACGTGTACAAGATC
binding result: binds
